Literature values in publication PMC7488126.
pKd: −log10 of the molar value. One block for each substance: values may come before it.

Assays:
CD48 (Homo sapiens) = CD48 (Homo sapiens) (UniProt P09326)
CD112 (Homo sapiens) = CD112 (Homo sapiens) (UniProt Q92692)
CD155 (Homo sapiens) = CD155 (Homo sapiens) (UniProt P15151)
B7H6 (Homo sapiens) = B7H6 (Homo sapiens) (UniProt Q68D85)
Sequence of UniProt Q68D85 (Q68D85 25-262): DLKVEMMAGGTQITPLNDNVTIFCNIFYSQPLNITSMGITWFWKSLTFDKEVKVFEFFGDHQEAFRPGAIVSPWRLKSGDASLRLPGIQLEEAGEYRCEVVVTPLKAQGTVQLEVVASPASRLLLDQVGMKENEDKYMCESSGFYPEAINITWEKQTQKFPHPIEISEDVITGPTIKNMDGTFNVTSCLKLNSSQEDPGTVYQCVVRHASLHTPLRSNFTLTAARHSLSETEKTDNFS

Sequence of UniProt Q92692 (Q92692 32-360): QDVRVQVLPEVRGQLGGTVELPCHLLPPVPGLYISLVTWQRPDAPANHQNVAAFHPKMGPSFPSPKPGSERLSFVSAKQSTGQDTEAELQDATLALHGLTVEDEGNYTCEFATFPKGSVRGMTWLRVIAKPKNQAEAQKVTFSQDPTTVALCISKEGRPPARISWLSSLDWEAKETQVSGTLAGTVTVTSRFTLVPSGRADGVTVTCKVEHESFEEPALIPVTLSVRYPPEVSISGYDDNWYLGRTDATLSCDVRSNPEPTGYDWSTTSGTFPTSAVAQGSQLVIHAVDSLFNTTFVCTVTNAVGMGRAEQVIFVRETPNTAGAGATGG
Sequence of UniProt P09326 (P09326 27-220): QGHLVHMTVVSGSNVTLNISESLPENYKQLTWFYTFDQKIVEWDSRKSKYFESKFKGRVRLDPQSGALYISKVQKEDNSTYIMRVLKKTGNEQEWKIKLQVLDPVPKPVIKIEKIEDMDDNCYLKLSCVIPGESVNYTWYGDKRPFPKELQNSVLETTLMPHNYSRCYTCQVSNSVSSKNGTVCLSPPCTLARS

- pKd (CD48 (Homo sapiens)): 5.10
Substance: 2B4 ECD (from UniProt Q9BZW8)

- pKd (CD112 (Homo sapiens)): 6.51
- pKd (CD155 (Homo sapiens)): 6.64
Substance: DNAM-1 (from UniProt Q15762)

- pKd (B7H6 (Homo sapiens)): 6.00
Substance: NKp30 Ig variable domain (from UniProt O14931)
